Results from US20220089743A1 (Chugai, published 2022).

Key:
[1] = molecular target: HLA-DQ2.5 on IHW09023 cells loaded with 33 mer gliadin peptide (human; wheat); experiment: cell-based or functional assay
[2] = molecular target: HLA-DQ2.5 on IHW09023 cells loaded with omega1/2 gliadin peptide (human; wheat); experiment: cell-based or functional assay
[3] = molecular target: HLA-DQ2.5 on IHW09023 cells loaded with BC hordein peptide (human; barley); experiment: cell-based or functional assay
[4] = molecular target: HLA-DQ2.5 on IHW09023 cells loaded with gamma 1 gliadin peptide (human; wheat); experiment: cell-based or functional assay
[5] = molecular target: HLA-DQ2.5 on IHW09023 cells loaded with gamma 2 gliadin peptide (human; wheat); experiment: cell-based or functional assay
[6] = molecular target: HLA-DQ2.5 on IHW09023 cells loaded with gamma 3 gliadin peptide (human; wheat); experiment: cell-based or functional assay
[7] = molecular target: HLA-DQ2.5 on IHW09023 cells loaded with gamma 4a gliadin peptide (human; wheat); experiment: cell-based or functional assay
[8] = molecular target: HLA-DQ2.5 on IHW09023 cells loaded with gamma 4d gliadin peptide (human; wheat); experiment: cell-based or functional assay
[9] = molecular target: T1, HLA-DQ5.1 on Ba/F3 cells (human, limits assumed); experiment: FACS, Ba/F3 cells; raw MFI
T1 construct: whole, on cells; also called Ba/F3-HLA-DQ5.1
T1 MHC II alpha: not shown
T1 MHC II beta: not shown

[10] = molecular target: T2, HLA-DQ6.3 on Ba/F3 cells (human, UniProt P01920 33-230, limits assumed); experiment: FACS, Ba/F3 cells; raw MFI
T2 construct: whole, on cells; also called Ba/F3-HLA-DQ6.3
T2 MHC II alpha: not shown
T2 MHC II beta: not shown

[11] = molecular target: T3, HLA-DR on Ba/F3 cells (human, UniProt P01903 26-216; P79483 30-227, limits assumed); experiment: FACS, Ba/F3 cells; raw MFI
T3 construct: whole, on cells; also called Ba/F3-HLA-DR
T3 MHC II alpha: not shown
T3 MHC II beta: not shown

[12] = molecular target: T4, HLA-DP on Ba/F3 cells (human, UniProt P20036 29-222; P04440 30-225, limits assumed); experiment: FACS, Ba/F3 cells; raw MFI
T4 construct: whole, on cells; also called Ba/F3-HLA-DP

[13] = molecular target: T5, HLA-DQ2.5 on Ba/F3 cells (human, UniProt P01909 24-216, limits assumed); experiment: FACS, Ba/F3 cells; %MFI with IC17dK 0 and DQN0139bb 100
T5 construct: whole, on cells; MHC class II without a fused peptide; also called Ba/F3-HLA-DQ2.5

[14] = molecular target: T6, HLA-DQ2.2 on Ba/F3 cells (human, UniProt P01909 24-216, limits assumed); experiment: as above
T6 construct: whole, on cells; also called Ba/F3-HLA-DQ2.2
T6 MHC II alpha: not shown
T6 MHC II beta: not shown

[15] = molecular target: T7, HLA-DQ7.5 on Ba/F3 cells (human, UniProt P01909 24-216; P01920 33-230, limits assumed); experiment: as above
T7 construct: whole, on cells; also called Ba/F3-HLA-DQ7.5

[16] = molecular target: T8, HLA-DQ8 on Ba/F3 cells (human, UniProt P01909 24-216; P01920 33-230, limits assumed); experiment: as above
T8 construct: whole, on cells; also called Ba/F3-HLA-DQ8
T8 MHC II alpha: not shown
T8 MHC II beta: not shown

[17] = molecular target: T9, HLA-DQ7.3 on Ba/F3 cells (human, UniProt P01909 24-216; P01920 33-230, limits assumed); experiment: as above
T9 construct: whole, on cells; also called Ba/F3-HLA-DQ7.3
T9 MHC II alpha: not shown
T9 MHC II beta: not shown

T4 sequence (P20036 29-222 limits assumed, chain 1 of 4, other chains not shown): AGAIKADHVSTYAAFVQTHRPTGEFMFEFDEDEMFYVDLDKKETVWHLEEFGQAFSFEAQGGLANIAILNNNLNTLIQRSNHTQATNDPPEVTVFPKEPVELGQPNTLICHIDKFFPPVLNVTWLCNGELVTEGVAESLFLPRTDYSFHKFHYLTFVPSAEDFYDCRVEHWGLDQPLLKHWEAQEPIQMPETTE
T4 sequence (P04440 30-225 limits assumed, chain 2 of 4, other chains not shown): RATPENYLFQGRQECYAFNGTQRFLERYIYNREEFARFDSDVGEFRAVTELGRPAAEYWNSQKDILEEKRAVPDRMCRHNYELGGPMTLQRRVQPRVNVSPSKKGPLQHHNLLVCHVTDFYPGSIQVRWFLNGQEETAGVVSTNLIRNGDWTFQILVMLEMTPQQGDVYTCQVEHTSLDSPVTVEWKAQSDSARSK

B1: DQN0344H1013/L0620//DQN0385H1521/L0605-F6 (bispecific antibody)
heavy 1: QVQLVESGGGVVQPGRSLRLSCAASGFTFSSAYWMVWVRQAPGQGLEWMGAVYGGSDTTYYAKWTEGRFTISRDTSKNTLYLQMNSLRAEDTAVYYCAREPLNYYYYGELNVWGQGTLVTVSSASTKGPSVFPLAPSSKSTSGGTAALGCLVKDYFPEPVTVSWNSGALTSGVHTFPAVLKSSGLYSLSSVVTVPSSSLGTQTYICNVNHKPSNTKVDKRVEPKSCDKTHTCPPCPAPELRRGPSVFLFPPKPKDTLMISRTPEVTCVVVDVSHEDPEVKFNWYVDGVEVHNAKTKPREEQYNSTYRVVSVLTVLHQDWLNGKEYKCKVSNKALPAPIEKTISKAKGQPREPQVYTLPPSREEMTKNQVSLTCLVKGFYPSDIAVEWESNGQPENNYKTTPPYLDSDGSFFLYSKLTVDKSRWQEGNVFSCSVLHEALHAHYTREELSLSP
light 1: DIQMTQSPSSLSASVGDRVTITCQATENIYSGLAWYQQKPGKAPKLLIYYVSTLAYGIPARFSGSGSGTDFTLTISSLEPEDFAVYYCQTYEDVSAVTFGQGTKVEIKRTVAAPSVFIFPPSDEQLKSGTAEVVCLLNNFYPREAKVQWKVDNALQSGNSEESVTEQDSKDSTYSLSSTLTLSKADYEKHKVYACEVTHQGLSSPVTKSFNRGEC
heavy 2: QVQLVESGGGVVQPGRSLRLSCAASGFTFESWYFMSWVRQAPGKGLEWVASIDTGSGSIDYAEWVEGRFTISRDNSKNTLYLQMNSLRAEDTAVYYCARDIGIDYNFWGPGTLVTVSSASTKGPSVFPLAPSSKSTSGGTAALGCLVEDYFPEPVTVSWNSGALTSGVHTFPAVLESSGLYSLSSVVTVPSSSLGTKTYICNVNHKPSNTKVDKRVEPKSCDKTHTCPPCPAPELRRGPSVFLFPPKPKDTLMISRTPEVTCVVVDVSHEDPEVKFNWYVDGVEVHNAKTKPREEQYNSTYRVVSVLTVLHQDWLNGKEYKCKVSNKALPAPIEKTISKAKGQPREPQVYTLPPSRKEMTKNQVSLTCLVKGFYPSDIAVEWESNGQPENNYKTTPPYLDSDGSFFLYSKLTVDKSRWQQGNVFSCSVLHEALHAHYTRKELSLSP
light 2: DIQMTQSPSSLSASVGDRVTITCQTTQSISSYLNWYQQKPGQPPKLLIYYASTKAEGIPARFSGSGSGTDFTLTISSLEPEDFAVYYCHYGISKVSFGQGTKVEIKRTVAAPSVFIFPPSDEQLKSGTAKVVCLLNNFYPREAKVQWKVDNALQSGNSKESVTEQDSKDSTYSLSSTLTLSKADYEKHKVYACEVTHQGLSSPVTKSFNRGEC
[1]
  IC50, α1a gliadin TCR, 250 nM 33mer gliadin: 0.28 ng/mL
  IC50, α1b gliadin TCR, 250 nM 33mer gliadin: 1.76 ng/mL
  IC50, α2 gliadin TCR, 250 nM 33mer gliadin: 0.33 ng/mL
[2]
  IC50, ω1 gliadin TCR, 25 µM ω1/2 gliadin: 1.91 ng/mL
[3]
  IC50, BC hordein TCR, 250 nM BC hordein: 8.98 ng/mL
[4]
  IC50, γ1 gliadin TCR, 250 nM γ1 gliadin: 0.68 ng/mL
[5]
  IC50, γ2 gliadin TCR, 250 nM γ2 gliadin: 853 ng/mL
[6]
  IC50, γ3 gliadin TCR, 100 µM γ3 gliadin: 1.4 ng/mL
[7]
  IC50, γ4a gliadin TCR, 25 µM γ4a gliadin: 1350 ng/mL
[8]
  IC50, γ4d gliadin TCR, 100 µM γ4d gliadin: 13 ng/mL
[9]
  binding result: no binding (tested: 0.05 ug/mL)
[10]
  binding result: no binding (tested: 0.05 ug/mL)
[11]
  binding result: no binding (tested: 0.05 ug/mL)
[12]
  binding result: no binding (tested: 0.05 ug/mL)
[13]
  binding result: no binding (tested: 0.05 ug/mL)
[14]
  binding result: no binding (tested: 0.05 ug/mL)
[15]
  binding result: no binding (tested: 0.05 ug/mL)
[16]
  binding result: no binding (tested: 0.05 ug/mL)
[17]
  binding result: no binding (tested: 0.05 ug/mL)
